In US20210115121A1:

Biological target: human Tau P301S from brain of P301S Tau transgenic mice (human) (UniProt P10636)
Experiment: cell-based or functional assay

Chain of human Tau P301S from brain of P301S Tau transgenic mice (human) (P10636 other isoform, or with tags, fused parts or gaps P301S P301S P301S P301S): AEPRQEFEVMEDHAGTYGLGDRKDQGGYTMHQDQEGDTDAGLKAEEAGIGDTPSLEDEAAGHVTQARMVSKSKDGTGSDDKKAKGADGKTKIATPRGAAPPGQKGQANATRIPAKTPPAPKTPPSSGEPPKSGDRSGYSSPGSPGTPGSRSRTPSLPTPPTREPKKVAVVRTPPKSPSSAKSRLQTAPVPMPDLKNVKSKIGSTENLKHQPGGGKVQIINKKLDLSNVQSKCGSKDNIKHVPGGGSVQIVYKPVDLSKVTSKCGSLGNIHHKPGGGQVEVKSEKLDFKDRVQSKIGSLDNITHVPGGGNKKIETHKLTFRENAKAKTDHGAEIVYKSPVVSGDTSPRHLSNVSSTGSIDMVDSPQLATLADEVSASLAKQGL

- IC50 (cellular Tau aggregation assay): 2 nM
- Imax (maximal efficacy at 300 nM, cellular Tau aggregation assay): 93%
B1: AB1 having a rat VL of SEQ ID NO: 7 and a rat VH of SEQ ID NO.:8 (antibody, IgG1, V domains shown)
VH: EVKLEESGPGLMQPSETLSLTCTVSGFSLTSNDIAWVRQPLGKGLVWMGTIWTDGSTNYNSAVQSRLSISRDTSKSQFFLKMNSLQPEDTGTYYCARHRLYYGAFDYWGQGTMVTVS
VL: DIVMTQTPVSLSVTLGDQASISCRSSQSLEYSDGYTYLEWYLQKPGQSPQLLIYEVSNRFSGVPDRFIGSGSGTDFTLKISRVEPEDLGVYYCFQATHNPYTFGAGTKLEIK
